US20120178124A1, “STEROL SIDE CHAIN-CLEAVING ENZYME PROTEIN AND USE THEREOF” (MITSUBISHI CHEMICAL CORPORATION, priority 2009, published 2012)

Assays:
Format in all cases: biochemical
[1] = Analysis of the optimum pH, conversion of 4-cholesten-3-one by cell-free extract; conditions: for Specific activity: 4-cholesten-3-one to progesterone, 30° C., 14 hours
Procedure: (§1) To 20 ml of the cell suspension prepared in (2) above, 680 μl of X10 Bug Buster (Novagen), 20 μl of Benzonase (Novagen), and 2 ml of 40 mg/ml lysozyme were added, and the obtained mixture was then shaken at 30° C. for 30 minutes to disintegrate the cells. Thereafter, the reaction solution was centrifuged to obtain the cell-free extract. The obtained, approximately 20 ml of cell-free extract was dialyzed against 1 L of Buffer R (20 mM KPB pH 7.4, 20% glycerol) two times, and the deposited precipitate was then removed by centrifugation. The cell-free extract obtained as a supernatant herein was used in the subsequent experiments.
Using the cell-free extract prepared in (3) above, conversion of 4-cholesten-3-one was carried out at various pH values. The reaction solution was prepared, such that 1 ml of Buffer R comprised […] CYP204A1 or […] CYPSS204A, 64 μg/ml spinach-derived ferredoxin, a 0.1 U/ml spinach-derived ferredoxin reductase protein, 3 U/ml glucose dehydrogenase, 60 mM glucose, 50 μg/ml 4-cholesten-3-one, 2 mM NADH, and 2 mM NADPH. Then, 562 μl of 200 mM Buffer having various pH values was added to 1 ml of the reaction solution, so as to adjust the pH of the reaction solution. The reaction was initiated by the addition of NADH and NADPH, and it was carried out at 200 rpm at 30° C. for 14 hours. Thereafter, 1.5 ml of ethyl acetate was added to the reaction solution to terminate the reaction, and extraction was carried out. Then, extraction was carried out again with 0.75 ml of ethyl acetate. The obtained ethyl acetate phase was solidified using evaporator, and the residue was then dissolved in 200.d of methanol. Thereafter, progesterone was detected by HPLC analysis. The enzyme protein activity for conversion of 4-cholesten-3-one to progesterone under various pH conditions is shown in Table 1. The enzyme protein activity was indicated by the amount (g) of progesterone generated per hour per mol of P450.

[2] = pH stability test of cell-free extract; conditions: for Relative activity: 140 hr versus 0 hr, 6° C.; for Activity 0 hr: immediately after mixing, reaction 15° C., 4 hours, pH 7.5
Procedure: as §1
0.5 ml of the cell-free extract prepared in (3) above was mixed with 0.5 ml of 50 mM buffer having various pH values, pH was then measured, and the mixture was then conserved at 6° C. for 140 hours. […] Using the prepared cell-free extracts having various pH values, conversion of 4-cholesten-3-one was carried out. The reaction was carried out, immediately after the enzyme protein solution was mixed with buffers having various pH values and after the mixed solution was conserved for 140 hours, so as to examine the stability. The reaction solution was prepared, such that 1 ml of the buffer comprised an enzyme protein solution of CYP204A1 or CYPSS having various pH values, 64 μg/ml spinach-derived ferredoxin, 0.1 U/ml spinach-derived ferredoxin reductase protein, 3 U/ml glucose dehydrogenase, 60 mM glucose, 50 μg/ml 4-cholesten-3-one, 2 mM NADH, and 2 mM NADPH. To the reaction solution, 562 μl of 200 mM Tris-HCl was added, so as to adjust the reaction solution to pH 7.5. It was confirmed that the reaction solution maintained pH 7.5, even though enzyme protein solutions having various pH values were added thereto. The reaction was initiated by addition of NADH and NADPH, and it was carried out at 200 rpm at 15° C. for 4 hours. Thereafter, 1.5 ml of ethyl acetate was added to the reaction solution to terminate the reaction, and extraction was carried out. Then, extraction was carried out again with 0.75 ml of ethyl acetate. The obtained ethyl acetate phase was solidified using an evaporator, and the residue was then dissolved in 200 μl of methanol. Thereafter, progesterone was detected by HPLC analysis.

[3] = Thermostability test of cell-free extract; conditions: for Relative activity: 140 hr versus 0 hr
Procedure: as §1
The cell-free extract prepared in (3) above was conserved at various temperature for 140 hours. The conservation temperature was set at 6° C., 10° C., 20° C., 30° C., 37° C., or 45° C. Using the enzyme protein solution before conservation and the sample obtained after conservation for 140 hours, conversion of 4-cholesten-3-one was carried out, and stability was examined. The reaction solution was prepared, such that 1 ml of the buffer comprised an enzyme protein solution of CYP204A1 or CYPSS that had been conserved at each temperature, 64 μg/ml spinach-derived ferredoxin, 0.1 U/ml spinach-derived ferredoxin reductase protein, 3 U/ml glucose dehydrogenase, 60 mM glucose, 50 μg/ml 4-cholesten-3-one, 2 mM NADH, and 2 mM NADPH. The reaction was initiated by addition of NADH and NADPH, and it was carried out at 200 rpm at 15° C. for 4 hours. Thereafter, 1.5 ml of ethyl acetate was added to the reaction solution to terminate the reaction, and extraction was carried out. Then, extraction was carried out again with 0.75 ml of ethyl acetate. The obtained ethyl acetate phase was solidified using an evaporator, and the residue was then dissolved in 200 μl of methanol. Thereafter, progesterone was detected by HPLC analysis. […] In particular, when the cell-free extract was conversed at 20° C. for 140 hours, CYP204A1 maintained 47% of its activity and CYPSS maintained 39% of its activity.

B1: Sphingomonas subterranea NBRC16086 P450scc CYPSS204A (CYPSS), wild type, SEQ ID NO: 2 (Novosphingobium subterraneum) (protein)
chain: MASAAAGADGLPLLDGGVPLLGHLAQFFRDPVSVLKRGYRSKGRLFAMNFMGQRMNVMLGPEHNRFFFEETDKLLSIRESMPFFLKMFSPEFYSFAEMDEYLRQRAIIMPRFKAASMKQYVPVMVEESLNLVERLGEEGEFDLIPTLGPVVMDIAAHSFMGREFHEKLGHEFFELFRDFSGGMEFVLPLWLPTPKMVKSQRAKKKLHAILQSWIDKRRASPLDPPDFFQTMIETKYPDGRAVPDEIIRHLILLLVWAGHETTAGQVSWALADLLQNPGYQQVLREEVASLLGGSDGRALGWEQAVAMEKMDLALRETERLHPVAYMLSRKASADIERDGYRIRKGEFVLLAPSVSHRMEETFRNADAYDPERFNPQNPDAQIESNSLIGFGGGVHRCAGVNFARMEMKVLVAILLQNFDMELIDEVRPIAGASTYWPAQPCRVRYKRRKLDGAGGSADVAALAKAAGCPAHA
Specific activity ([1]; KPB pH 6.2): 0 g/h/mol | Specific activity ([1]; KPB pH 6.7): 19 g/h/mol | Specific activity ([1]; KPB pH 7.1): 21 g/h/mol | Specific activity ([1]; KPB pH 7.4): 0 g/h/mol | Specific activity ([1]; KPB pH 7.9): 0 g/h/mol | Specific activity ([1]; TES pH 6.6): 0 g/h/mol | Specific activity ([1]; TES pH 6.8): 16 g/h/mol | Specific activity ([1]; TES pH 7.3): 76 g/h/mol | Specific activity ([1]; TES pH 7.5): 165 g/h/mol | Specific activity ([1]; TES pH 8.0): 168 g/h/mol | Specific activity ([1]; Tris-HCl pH 7.5): 301 g/h/mol | Specific activity ([1]; Tris-HCl pH 8.2): 269 g/h/mol | Specific activity ([1]; Tris-HCl pH 8.7): 40 g/h/mol | optimum pH (pH of highest activity) ([1]; conversion of 4-cholesten-3-one to progesterone): 7.5 | Relative activity ([2]; AcB pH 6.0): 37% | Activity 140 hr ([2]; AcB pH 6.0, conserved at 6° C. for 140 hours): 2.7 µg/mL | Activity 0 hr ([2]; AcB pH 6.0): 7.3 µg/mL | Relative activity ([2]; KPB pH 6.7): 61% | Activity 140 hr ([2]; KPB pH 6.7, conserved at 6° C. for 140 hours): 4.3 µg/mL | Activity 0 hr ([2]; KPB pH 6.7): 7.1 µg/mL | Relative activity ([2]; KPB pH 7.2): 73% | Activity 140 hr ([2]; KPB pH 7.2, conserved at 6° C. for 140 hours): 5.3 µg/mL | Activity 0 hr ([2]; KPB pH 7.2): 7.3 µg/mL | Relative activity ([2]; KPB pH 7.6): 85% | Activity 140 hr ([2]; KPB pH 7.6, conserved at 6° C. for 140 hours): 5.5 µg/mL | Activity 0 hr ([2]; KPB pH 7.6): 6.5 µg/mL | pH at which most stable ([2]; KPB, conserved at 6° C. for 140 hours): 7.6 | Relative activity ([2]; TES pH 7.5): 71% | Activity 140 hr ([2]; TES pH 7.5, conserved at 6° C. for 140 hours): 5.2 µg/mL | Activity 0 hr ([2]; TES pH 7.5): 7.3 µg/mL | Relative activity ([2]; Tris pH 7.4): 63% | Activity 140 hr ([2]; Tris pH 7.4, conserved at 6° C. for 140 hours): 5 µg/mL | Activity 0 hr ([2]; Tris pH 7.4): 8 µg/mL | Relative activity ([2]; Tris pH 8.1): 65% | Activity 140 hr ([2]; Tris pH 8.1, conserved at 6° C. for 140 hours): 4.5 µg/mL | Activity 0 hr ([2]; Tris pH 8.1): 6.9 µg/mL | Relative activity ([2]; Tris pH 8.9): 51% | Activity 140 hr ([2]; Tris pH 8.9, conserved at 6° C. for 140 hours): 3.7 µg/mL | Activity 0 hr ([2]; Tris pH 8.9): 7.3 µg/mL | Activity 140 hr ([3]; conserved at 6° C. for 140 hours): 11.6 µg/mL | Relative activity ([3]; conserved at 6° C.): 81% | Activity 140 hr ([3]; conserved at 10° C. for 140 hours): 10.5 µg/mL | Relative activity ([3]; conserved at 10° C.): 73% | Activity 140 hr ([3]; conserved at 20° C. for 140 hours): 5.6 µg/mL | Activity 140 hr ([3]; conserved at 30° C. for 140 hours): 1 µg/mL | Relative activity ([3]; conserved at 30° C.): 7% | Activity 140 hr ([3]; conserved at 37° C. for 140 hours): 0 µg/mL | Relative activity ([3]; conserved at 37° C.): 0% | Activity 140 hr ([3]; conserved at 45° C. for 140 hours): 0 µg/mL | Relative activity ([3]; conserved at 45° C.): 0% | Activity 0 hr ([3]; enzyme protein solution before conservation, reaction 15° C., 4 hours): 14.4 µg/mL
